Source: patent US20040018971A1 (published 2004)

B1: Her2/neu.760.F1, 8-mer (peptide)
peptide: FPKANKEI
notes: 8-mer analog of the HER2/neu peptide starting at position 760; same label as the 9-mer in r54
B2: Her2/neu.642.F1I10 (peptide)
peptide: FPAEQRASPI
notes: 10-mer analog of the HER2/neu peptide starting at position 642
B3: Her2/neu.760.F1I9 (peptide)
peptide: FPKANKEII
notes: 9-mer analog of the HER2/neu peptide starting at position 760
B4: Her2/neu.706.F1I10 (peptide)
peptide: FPNQAQMRII
notes: 10-mer analog of the HER2/neu peptide starting at position 706
B5: Her2/neu.649.I9 (peptide)
peptide: SPLTSIISI
notes: 9-mer analog of the HER2/neu peptide starting at position 649
B6: Her2/neu.698.F1I9 (peptide)
peptide: FPLTPSGAI
notes: 9-mer analog of the HER2/neu peptide starting at position 698
B7: Her2/neu.649, 10-mer (peptide)
peptide: SPLTSIISAV
notes: 10-mer native HER2/neu peptide starting at position 649
B8: HER2/neu peptide, position 182, 9 amino acids (peptide)
peptide: TLIDTNRSR
notes: Synthetic A3 supermotif peptide
B9: HER2/neu peptide, position 90, 9 amino acids (peptide)
peptide: QVRQVPLQR
notes: as for B8
B10: HER2/neu peptide, position 95, 9 amino acids (peptide)
peptide: PLQRLRIVR
notes: as for B8
B11: HER2/neu peptide, position 713, 9 amino acids (peptide)
peptide: RILKETELR
notes: as for B8
B12: HER2/neu peptide, position 360, 10 amino acids (peptide)
peptide: NIQEFAGCKK
notes: as for B8
B13: HER2/neu peptide, position 479, 9 amino acids (peptide)
peptide: TVPWDQLFR
notes: as for B8
B14: HER2/neu peptide, position 360, 9 amino acids (peptide)
peptide: NIQEFAGCK
notes: as for B8
B15: HER2/neu peptide, position 1162, 10 amino acids (peptide)
peptide: PAGATLERPK
notes: as for B8
B16: HER2/neu peptide, position 208, 10 amino acids (peptide)
peptide: SSEDCQSLTR
notes: as for B8
B17: HER2/neu peptide, position 1102, 10 amino acids (peptide)
peptide: PTHDPSPLQR
B18: HER2/neu peptide, position 491, 9 amino acids (peptide)
peptide: QALLHTANR
notes: as for B8
B19: Her2/neu.415.I8 (peptide)
peptide: WPDSLPDI
notes: analog peptide
B20: Her2/neu.65 (10-mer) (peptide)
peptide: LPTNASLSFL
notes: native HER2/neu peptide from position 65
B21: Her2/neu.605 (peptide)
peptide: KPDLSYMPI
notes: native HER2/neu peptide from position 605
B22: HER2/neu peptide, position 727, 9 amino acids (peptide)
peptide: GSGAFGTVY
B23: HER2/neu peptide, position 668, 9 amino acids (peptide)
peptide: GVVFGILIK
notes: T0001 prints T at residue 673
B24: HER2/neu peptide, position 976, 10 amino acids (peptide)
peptide: FSRMARDPQR
B25: HER2/neu peptide, position 704, 10 amino acids (peptide)
peptide: GAMPNQAQMR
B26: HER2/neu peptide, position 874, 10 amino acids (peptide)
peptide: ETEYHADGGK
B27: HER2/neu peptide, position 321, 10 amino acids (peptide)
peptide: EVTAEDGTQR
B28: HER2/neu peptide, position 1188, 9 amino acids (peptide)
peptide: GGAVENPEY
B29: HER2/neu peptide, position 508, 10 amino acids (peptide)
peptide: GLACHQLCAR
B30: HER2/neu peptide, position 1213, 9 amino acids (peptide)
peptide: FSPAFDNLY
B31: HER2/neu peptide, position 914, 10 amino acids (peptide)
peptide: ELMTFGAKPY
B32: HER2/neu peptide, position 727, 10 amino acids (peptide)
peptide: GSGAFGTVYK
B33: HER2/neu peptide, position 672, 10 amino acids (peptide)
peptide: GILIKRRQQK
B34: HER2/neu peptide, position 549, 10 amino acids (peptide)
peptide: GLPREYVNAR
B35: HER2/neu peptide, position 292, 10 amino acids (peptide)
peptide: GASCVTACPY
B36: HER2/neu peptide, position 327, 10 amino acids (peptide)
peptide: GTQRCEKCSK
B37: HER2/neu peptide, position 1038, 9 amino acids (peptide)
peptide: GAGGMVHHR
B38: HER2/neu peptide, position 265, 10 amino acids (peptide)
peptide: ELHCPALVTY
B39: HER2/neu peptide, position 878, 10 amino acids (peptide)
peptide: HADGGKVPIK
B40: HER2/neu peptide, position 346, 9 amino acids (peptide)
peptide: GMEHLREVR
B41: HER2/neu peptide, position 447, 10 amino acids (peptide)
peptide: GLGISWLGLR
B42: HER2/neu peptide, position 776, 9 amino acids (peptide)
peptide: GVGSPYVSR
B43: HER2/neu peptide, position 832, 9 amino acids (peptide)
peptide: GMSYLEDVR
B44: HER2/neu peptide, position 401, 9 amino acids (peptide)
peptide: ETLEEITGY
B45: HER2/neu peptide, position 280, 9 amino acids (peptide)
peptide: ESMPNPEGR

target: HLA-B*5101 (human); test: competition vs 125I-labeled standard peptide, purified HLA

Row | Binder | IC50 [nM]
1 | B1 | 2500
2 | B2 | 98
3 | B3 | 55
4 | B4 | 76
5 | B5 | 275
6 | B6 | 9.2

target: HLA-B*0702 (human); test: as above

Row | Binder | IC50 [nM]
7 | B1 | 0.16
8 | B7 | 61
9 | B2 | 3.1
10 | B3 | 8.5
11 | B4 | 290
12 | B5 | 86
13 | B6 | 0.9

target: HLA-B*5301 (human); test: as above

Row | Binder | IC50 [nM]
14 | B2 | 4900
15 | B3 | 7150
16 | B4 | 490
17 | B5 | 3440

target: HLA-B*5401 (human); test: as above

Row | Binder | IC50 [nM]
18 | B1 | 3120
19 | B7 | 667
20 | B2 | 56
21 | B3 | 39
22 | B4 | 59
23 | B5 | 217
24 | B6 | 1.9

target: HLA-A*0301 (human); test: inhibition of 125I-labelled standard peptide binding to purified HLA, gel filtration

Row | Binder | relative binding ratio
25 | B8 | 0.0004 ratio (IC50 of standard peptide / IC50 of test peptide)
26 | B9 | 0.0029 ratio (IC50 of standard peptide / IC50 of test peptide)
27 | B10 | 0.0002 ratio (IC50 of standard peptide / IC50 of test peptide)
28 | B11 | 0.0007 ratio (IC50 of standard peptide / IC50 of test peptide)
29 | B12 | 0.0003 ratio (IC50 of standard peptide / IC50 of test peptide)
30 | B13 | 0.0006 ratio (IC50 of standard peptide / IC50 of test peptide)
31 | B14 | 0.0002 ratio (IC50 of standard peptide / IC50 of test peptide)
32 | B15 | -0.0002 ratio (IC50 of standard peptide / IC50 of test peptide)
33 | B16 | -0.0002 ratio (IC50 of standard peptide / IC50 of test peptide)
34 | B17 | 0.0003 ratio (IC50 of standard peptide / IC50 of test peptide)
35 | B18 | 0.0046 ratio (IC50 of standard peptide / IC50 of test peptide)

target: HLA-A*1101 (human); test: as above

Row | Binder | relative binding ratio
36 | B8 | 0.0005 ratio (IC50 of standard peptide / IC50 of test peptide)
37 | B9 | 0.0005 ratio (IC50 of standard peptide / IC50 of test peptide)
38 | B10 | 0.0001 ratio (IC50 of standard peptide / IC50 of test peptide)
39 | B11 | 0.0038 ratio (IC50 of standard peptide / IC50 of test peptide)
40 | B12 | 0.0056 ratio (IC50 of standard peptide / IC50 of test peptide)
41 | B13 | 0.0072 ratio (IC50 of standard peptide / IC50 of test peptide)
42 | B14 | 0.0036 ratio (IC50 of standard peptide / IC50 of test peptide)
43 | B15 | -0.0002 ratio (IC50 of standard peptide / IC50 of test peptide)
44 | B16 | 0.002 ratio (IC50 of standard peptide / IC50 of test peptide)
45 | B17 | 0.0001 ratio (IC50 of standard peptide / IC50 of test peptide)
46 | B18 | 0.001 ratio (IC50 of standard peptide / IC50 of test peptide)

target: HLA-B*0702 (human); test: competition with 125I probe peptide, purified HLA

Row | Binder | IC50 [nM]
47 | B19 | 71
48 | B20 | 290
49 | B21 | 76

target: HLA-B*5101 (human); test: competition with 125I probe peptide, purified HLA

Row | Binder | IC50 [nM]
50 | B19 | 5000
51 | B20 | 2500
52 | B21 | 2500

target: HLA-A*1101 (human); test: inhibition of 125I-labelled probe peptide binding to purified HLA-A*1101, gel filtration

Row | Binder | relative binding ratio (IC50 of standard peptide / IC50 of test peptide) [relative binding ratio]
53 | B22 | 0.0001
54 | B23 | 0.089
55 | B24 | 0.001
56 | B25 | 0.0041
57 | B26 | 0.0001
58 | B27 | 0.0001
59 | B28 | 0.0001
60 | B29 | 0.0001
61 | B30 | 0.0002
62 | B31 | 0.0002
63 | B32 | 0.13
64 | B33 | 0.0014
65 | B34 | 0.0003
66 | B35 | 0.0001
67 | B36 | 0.61
68 | B37 | 0.0043
69 | B38 | 0.0002
70 | B39 | 0.0008
71 | B40 | -0.0002
72 | B41 | 0.0001
73 | B42 | 0.0066
74 | B43 | 0.0002
75 | B44 | 0.0002
76 | B45 | -0.0002
